# Positions count from the first letter of the chain named. Numbers in names are those of the source.
# B1: PatGmacH618A (inactive mutant of the PatG macrocyclase domain) (enzyme)
# chain: GEDEIESAGVSASEVESSATKQKVALHPHDLDERIPGLADLHNQTLGDPQITIVIIDGDPDYTLSCFEGAEVSKVFPYWHEPAEPITPEDYAAFQSIRDQGLKGKEKEEALEAVIPDTKDRIVLNDAACHVTSTIVGQEHSPVFGIAPNCRVINMPQDAVIRGNYDDVMSPLNLARAIDLALELGANIIHCAFCRPTQTSEGEEILVQAIKKCQDNNVLIVSPTGNNSNESWCLPAVLPGTLAVGAAKVDGTPCHFSNWGGNNTKEGILAPGEEILGAQPCTEEPVRLTGTSMAAPVMTGISALLMSLQVQQGKPVDAEAVRTALLKTAIPCDPEVVEEPERCLRGFVNIPGAMKVLFGQ
# B2: PatGmac K598D (protein)
# chain: B1 chain with K107D, A127H
# B3: PatGmac wild-type (macrocyclase domain of PatG, residues 492-851) (protein)
# chain: B1 chain with A127H
# B4: PatGmac K594D (protein)
# chain: B1 chain with K103D, A127H
# B5: PatGmac triple mutant R589D K594D K598D (protein)
# chain: B1 chain with R98D, K103D, K107D, A127H
# B6: PatGmacΔ2 (deletion of residues 578-614, the helix-loop-helix insertion and the N-terminal extension of α4) (protein)
# chain: GEDEIESAGVSASEVESSATKQKVALHPHDLDERIPGLADLHNQTLGDPQITIVIIDGDPDYTLSCFEGAEVSKVFPYWHEPAEPILNDHACHVTSTIVGQEHSPVFGIAPNCRVINMPQDAVIRGNYDDVMSPLNLARAIDLALELGANIIHCAFCRPTQTSEGEEILVQAIKKCQDNNVLIVSPTGNNSNESWCLPAVLPGTLAVGAAKVDGTPCHFSNWGGNNTKEGILAPGEEILGAQPCTEEPVRLTGTSMAAPVMTGISALLMSLQVQQGKPVDAEAVRTALLKTAIPCDPEVVEEPERCLRGFVNIPGAMKVLFGQ
# B7: PatGmacΔ1 (deletion of residues 578-608, the helix-loop-helix insertion motif) (protein)
# chain: GEDEIESAGVSASEVESSATKQKVALHPHDLDERIPGLADLHNQTLGDPQITIVIIDGDPDYTLSCFEGAEVSKVFPYWHEPAEPITKDRIVLNDHACHVTSTIVGQEHSPVFGIAPNCRVINMPQDAVIRGNYDDVMSPLNLARAIDLALELGANIIHCAFCRPTQTSEGEEILVQAIKKCQDNNVLIVSPTGNNSNESWCLPAVLPGTLAVGAAKVDGTPCHFSNWGGNNTKEGILAPGEEILGAQPCTEEPVRLTGTSMAAPVMTGISALLMSLQVQQGKPVDAEAVRTALLKTAIPCDPEVVEEPERCLRGFVNIPGAMKVLFGQ
# Target: T1, VPAPIPFPAYDG peptide (substrate mimic, P8-P4')
# T1 peptide: VPAPIPFPAYDG
# Test: X-ray crystal structure of the complex, 2.63 Å (co-crystallised, then soaked in 7.5 mM peptide)
row,Binder,binding result
1,B1,binds

# Target: T2, VGAGIGFPAYRG peptide substrate (modified recognition sequence, Asp to Arg)
# T2 chain: VGAGIGFPAYRG
# Test: not given
Binder,"linear product, LC-MS","macrocyclization reaction, LC-MS"
B2,"PatGmac K598D produced cyclo[VGAGIGFP] with only 8% linear product, at a rate over an order of magnitude faster than wild-type PatGmac with VGAGIGFPAYDG",
B3,,reacted extremely slowly with the substrate giving equal amounts of macrocyclized and linear products
B4,,reacted extremely slowly with the substrate giving equal amounts of macrocyclized and linear products
B5,,reacted extremely slowly with the substrate giving equal amounts of macrocyclized and linear products

# Target: T3, VGAGIGFPAYDG peptide substrate
# T3 chain: VGAGIGFPAYDG
# Test: not given
Binder,Cyclic ion count (%) (M + H = 699),Linear ion count (%) (M + H = 717),Unprocessed ion count (%) (M + H = 1123)
B6,0,> 99,< 1
B7,0,92,8
B2,0,100,0
B3,100,0,0
B4,29,71,0
B5,0,6,94

# From patent US20150322474A1 (UNIVERSITY OF THE UNIVERSITY OF ABERDEEN, published 2015)
